The target in the experiment is GST-human NOGO-A56 (human) (UniProt Q9NQC3). The experiment is described as follows: SPR (Biacore T100), reverse format: antibody captured on Protein A, human NOGO 5+6 GST as analyte, 1:1 model; mean (SD) of 5 or 6 runs.
GST-human NOGO-A56 (human), sequence (Q9NQC3 586-785, form in doubt): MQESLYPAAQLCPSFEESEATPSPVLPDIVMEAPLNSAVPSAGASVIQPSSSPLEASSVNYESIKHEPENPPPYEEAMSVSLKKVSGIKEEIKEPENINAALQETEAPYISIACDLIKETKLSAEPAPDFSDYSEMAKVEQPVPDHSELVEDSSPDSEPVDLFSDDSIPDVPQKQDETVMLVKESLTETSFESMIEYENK

11C7 (chimeric version) (antibody) came in with a Kd of 0.42 nM, a dissociation rate constant (koff) of 0.000117 s⁻¹ and an on-rate constant (kon) of 285000 M⁻¹ s⁻¹.

The values are drawn from EP1899377B1.
